Substitutions are numbered along the chain they refer to.
T1: B. stearothermophilus primase DnaG R555A (B. stearothermophilus, UniProt Q9X4D0 1-597, R555A)
T1 sequence (looked up): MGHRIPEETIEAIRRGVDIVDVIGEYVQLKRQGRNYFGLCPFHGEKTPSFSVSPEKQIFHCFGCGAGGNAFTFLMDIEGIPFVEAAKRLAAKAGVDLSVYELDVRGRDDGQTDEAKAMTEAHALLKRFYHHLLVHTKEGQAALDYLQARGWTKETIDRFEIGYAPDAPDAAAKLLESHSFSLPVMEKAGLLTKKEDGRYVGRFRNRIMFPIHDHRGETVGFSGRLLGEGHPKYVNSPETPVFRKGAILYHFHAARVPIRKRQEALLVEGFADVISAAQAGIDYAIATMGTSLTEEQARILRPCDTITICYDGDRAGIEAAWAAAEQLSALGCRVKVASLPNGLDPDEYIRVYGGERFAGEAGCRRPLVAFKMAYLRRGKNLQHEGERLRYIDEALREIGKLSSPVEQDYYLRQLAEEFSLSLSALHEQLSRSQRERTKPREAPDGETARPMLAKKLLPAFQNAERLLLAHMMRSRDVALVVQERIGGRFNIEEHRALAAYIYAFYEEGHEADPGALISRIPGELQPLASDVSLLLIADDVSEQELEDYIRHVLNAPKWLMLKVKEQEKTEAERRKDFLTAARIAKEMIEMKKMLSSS

T2: B. stearothermophilus primase DnaG R495A (B. stearothermophilus, UniProt Q9X4D0 1-597, R495A)
T2 sequence (looked up): T1 sequence (looked up) with R495A, A555R

T3: B. stearothermophilus primase DnaG E464G (B. stearothermophilus, UniProt Q9X4D0 1-597, E464G)
T3 sequence (looked up): T1 sequence (looked up) with E464G, A555R

T4: B. stearothermophilus primase DnaG H494A (B. stearothermophilus, UniProt Q9X4D0 1-597, H494A)
T4 sequence (looked up): T1 sequence (looked up) with H494A, A555R

B1: Bacillus stearothermophilus primase DnaG (native) (enzyme, B. stearothermophilus, UniProt Q9X4D0 1-597, looked up)
chain: T1 sequence (looked up) with A555R
B2: Bacillus stearothermophilus replicative helicase DnaB (native) (enzyme, B. stearothermophilus)
chain: MSELFSERIPPQSIEAEQAVLGAVFLDPAALVPASEILIPEDFYRAAHQKIFHAMLRVADRGEPVDLVTVTAELAASEQLEEIGGVSYLSELADAVPTAANVEYYARIVEEKSVLRRLIRTATSIAQDGYTREDEIDVLLDEADRKIMEVSQRKHSGAFKNIKDILVQTYDNIEMLHNRDGEITGIPTGFTELDRMTSGFQRSDLIIVAARPSVGKTAFALNIAQNVATKTNENVAIFSLEMSAQQLVMRMLCAEGNINAQNLRTGKLTPEDWGKLTMAMGSLSNAGIYIDDTPSIRVSDIRAKCRRLKQESGLGMIVIDYLQLIQGSGRSKENRQQEVSEISRSLKALARELEVPVIALSQLSRSVEQRQDKRPMMSDIRESGSIEQDADIVAFLYRDDYYNKDSENKNIIEIIIAKQRNGPVGTVQLAFIKEYNKFVNLERRFDEAQIPPGA

Key:
[1] = target: Bacillus stearothermophilus replicative helicase DnaB (native) (B. stearothermophilus) (UniProt Q9X4C9); assay: ITC
[2] = target: B2; assay: ITC
[3] = target: T1, B. stearothermophilus primase DnaG R555A; assay: SEC
[4] = target: T2, B. stearothermophilus primase DnaG R495A; assay: SEC
[5] = target: T3, B. stearothermophilus primase DnaG E464G; assay: ITC
[6] = target: T4, B. stearothermophilus primase DnaG H494A; assay: ITC
[7] = target: B1; assay: ITC

B. stearothermophilus primase DnaG Y548A (from UniProt Q9X4D0 1-597) (enzyme)
Kd [1]: 83.3 nM
stoichiometry N [1]: 0.509

B1
dH [2]: 17.8 kcal/mol
stoichiometry N [2]: 0.287

B2
binding result [3]: binds
binding result [4]: binds
Ka [5]: 1.18e+08 M⁻¹
Kd [5]: 8.5 nM
Ka [6]: 1.18e+08 M⁻¹
Kd [6]: 8.5 nM
Ka [7]: 1.42e+08 M⁻¹
Kd [7]: 7.04 nM

Source: article PMC3035050 (Molecular microbiology, 2008)
